Test results reported in patent US20250326818A1 (UNIVERSIT T BASEL, published 2025).

Tests used:
Test in all cases: BLI (Octet), biotinylated CD123 ECD captured on streptavidin tips, hIL3 as analyte, level at 250 s normalised to loading
CD123 ECD E51Q = target: T1, CD123 ECD E51Q (human, UniProt P26951 19-305)
T1 construct: Recombinant ECD
T1 sequence: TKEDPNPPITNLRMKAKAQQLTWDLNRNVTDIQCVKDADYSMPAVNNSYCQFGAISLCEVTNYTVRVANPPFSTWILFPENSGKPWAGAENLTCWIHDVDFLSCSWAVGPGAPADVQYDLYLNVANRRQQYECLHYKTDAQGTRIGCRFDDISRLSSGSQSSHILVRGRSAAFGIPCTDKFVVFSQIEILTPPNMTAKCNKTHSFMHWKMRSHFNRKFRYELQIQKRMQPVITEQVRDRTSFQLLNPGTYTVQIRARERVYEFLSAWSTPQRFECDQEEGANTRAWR
Description: (§1) Binding of hIL3 (SinoBiological, PN: 11858-H08H) (analyte) to CD123 ECD wt. and variants (ligands) was performed using Streptavidin capture biosensor (SA) (Sartorius, PN: 18-5019). CD123 ECD wt. and variants were biotinylated using Biotinylation kit Type B (Abeam, PN: ab201796) following manufacturer instructions. Biotinylated CD123 ECD wt. and variants (ligands) were captured on SA tips for 1000 s to achieve a nm shift of 1.5 to 2 nm. Analyte hIL3 was titrated at 7 concentrations from 500 to 7.8 nM. Association to analyte was monitored for 300 s and dissociation for 120 s. Buffer only well was used as reference. No regeneration was performed, and a new set of tips was used for each biotinylated captured ligand. Data were analyzed using the Octet Data Analysis software HT 12.0. Due to the fast on/off nature of the interaction data were analyzed using Steady state analysis. Qualitative representation in FIG. 11 binding level were taken at 250 s association for all concentrations.

CD123 ECD S59E = target: T2, CD123 ECD S59E (human, UniProt P26951 19-305)
T2 construct: Recombinant ECD
T2 sequence: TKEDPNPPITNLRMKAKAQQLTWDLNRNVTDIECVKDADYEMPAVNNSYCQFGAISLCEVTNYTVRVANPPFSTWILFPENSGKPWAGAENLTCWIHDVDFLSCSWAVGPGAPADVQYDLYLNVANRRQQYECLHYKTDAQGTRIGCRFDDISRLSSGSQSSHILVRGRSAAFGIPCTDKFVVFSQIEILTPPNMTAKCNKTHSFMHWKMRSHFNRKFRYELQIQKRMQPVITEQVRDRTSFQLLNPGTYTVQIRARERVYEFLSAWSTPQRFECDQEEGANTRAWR
Description: as §1

CD123 ECD S59F = target: T3, CD123 ECD S59F (human, UniProt P26951 19-305)
T3 construct: Recombinant ECD
T3 sequence: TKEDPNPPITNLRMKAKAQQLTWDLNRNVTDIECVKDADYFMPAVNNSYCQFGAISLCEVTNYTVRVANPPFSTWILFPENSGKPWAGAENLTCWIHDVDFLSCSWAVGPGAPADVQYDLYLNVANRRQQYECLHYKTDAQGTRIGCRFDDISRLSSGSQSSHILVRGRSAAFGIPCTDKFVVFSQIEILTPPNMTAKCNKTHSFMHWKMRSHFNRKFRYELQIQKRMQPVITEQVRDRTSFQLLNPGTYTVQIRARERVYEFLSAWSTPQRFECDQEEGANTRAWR
Description: as §1

CD123 ECD S59Y = target: T4, CD123 ECD S59Y (human, UniProt P26951 19-305)
T4 construct: Recombinant ECD
T4 sequence: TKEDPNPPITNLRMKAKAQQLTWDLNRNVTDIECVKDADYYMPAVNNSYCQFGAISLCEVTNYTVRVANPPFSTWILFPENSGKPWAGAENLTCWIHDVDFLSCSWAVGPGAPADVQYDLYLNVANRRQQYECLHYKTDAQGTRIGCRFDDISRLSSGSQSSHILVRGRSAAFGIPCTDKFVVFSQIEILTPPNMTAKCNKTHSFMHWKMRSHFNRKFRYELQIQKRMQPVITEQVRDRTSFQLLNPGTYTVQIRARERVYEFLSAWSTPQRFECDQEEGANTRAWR
Description: as §1

CD123 ECD R84E = target: T5, CD123 ECD R84E (human, UniProt P26951 19-305)
T5 construct: Recombinant ECD
T5 sequence: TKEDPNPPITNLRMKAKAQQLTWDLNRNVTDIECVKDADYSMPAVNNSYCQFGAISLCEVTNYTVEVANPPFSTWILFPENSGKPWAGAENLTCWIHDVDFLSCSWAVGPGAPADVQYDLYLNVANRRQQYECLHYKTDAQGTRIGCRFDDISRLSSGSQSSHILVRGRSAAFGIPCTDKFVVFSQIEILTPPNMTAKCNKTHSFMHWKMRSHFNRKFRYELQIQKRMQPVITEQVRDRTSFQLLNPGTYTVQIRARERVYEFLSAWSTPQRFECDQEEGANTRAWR
Description: as §1

CD123 ECD E51K = target: T6, CD123 ECD E51K (human, UniProt P26951 19-305)
T6 construct: Recombinant ECD
T6 sequence: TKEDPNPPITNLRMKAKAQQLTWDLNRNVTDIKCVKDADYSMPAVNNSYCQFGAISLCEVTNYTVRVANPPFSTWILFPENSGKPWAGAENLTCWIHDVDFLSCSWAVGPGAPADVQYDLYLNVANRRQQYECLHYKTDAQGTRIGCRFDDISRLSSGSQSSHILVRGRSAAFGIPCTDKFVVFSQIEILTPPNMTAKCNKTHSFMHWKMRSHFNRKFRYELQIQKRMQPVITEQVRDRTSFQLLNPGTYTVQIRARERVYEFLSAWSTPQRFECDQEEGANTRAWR
Description: as §1

Measured: binding result

B1: hIL3 (ligand, human, UniProt P08700 20-152, looked up)
chain: APMTQTTPLKTSWVNCSNMIDEIITHLKQPPLPLLDFNNLNGEDQDILMENNLRRPNLEAFNRAVKSLQNASAIESILKNLLPCLPLATAAPTRHPIHIKDGDWNEFRRKLTFYLKTLENAQAQQTTLSLAIF
notes: also called Interleukin-3
binds: all assays above
